B1: humanized DREG-200: humanized anti-L-selectin antibody, mouse DREG-200 CDRs in human Eu framework, sequences in FIG. 2; isotype not stated at these places (antibody, V domains shown)
VH: MGWSCIILFLVATATGVHSQVQLVQSGAEVKKPGSSVKVSCKASGYTFTSYVMHWVRQAPGQGLEWIGYIYPYNDGTKYNEKFKGRVTITSDESTNTAYMELSSLRSEDTAVYYCAREEYGNYVRYFDVWGQGTLVTVSS
VL: MVFTPQILGLMLFWISASRGDIQMTQSPSTLSASVGDRVTITCKSSQSLLNSSNQKNYLAWYQQKPGKAPKLLVYFASTRESGVPDRFIGSGSGTDFTLTISSLQPEDFATYFCHQHYSTPLTFGQGTKVEVK
B2: humanized DREG-55: humanized anti-L-selectin antibody, mouse DREG-55 CDRs in human Gal framework, sequences in FIG. 7 (antibody, V domains shown)
VH: MNFGSSLIFLVLVLKGVQCEVQLVESGGGLVQPGGSLRLSCAASGFTFSTYAMSWVRQAPGKGLEWVASISTGGSTYYPDSVKGRFTISRDNAKNTLYLQMNSLRAEDTAVYYCARDYDGYFDYWGQGTLVTVSS
VL: METDTILLWVLLLWVPGSTGDIQMTQSPSSLSASVGDRVTITCKASQSVDYDGDSYMNWYQQKPGKAPKLLIYAASNLESGIPSRFSGSGSGTDFTLTISSLQPEDFATYYCQQSNEDPWTFGQGTKVEIK
B3: mouse DREG-55: mouse monoclonal antibody that binds to human L-selectin (Kishimoto et al.); CDR donor (antibody, V domains shown)
VH: MNFGSSLIFLVLVLKGVQCEVKLVESGGGLVKPGGSLKLACAASGFTFSTYAMSWVRQTPEKRLEWVASISTGGSTYYPDSVKGRFTISRDNARNILYLQMSSLRSEDTAMYYCARDYDGYFDYWGQGTTLTVSS
VL: METDTILLWVLLLWVPGSTGDIVLTQSPASLSVSLGERASISCKASQSVDYDGDSYMNWYQQKPGQPPKLLIYAASNLESGIPARFSGSGSGTDFTLNIHPVEEEDAATYYCQQSNEDPWTFGGGTKLEIK

Experiments:
rabbit leukocytes = conditions: reported in the literature; cited from earlier work
[1] = test system: binding of human lymphocytes to peripheral lymph node high endothelial venules; conditions: Kishimoto et al.; cited from earlier work
[2] = test system: binding of human neutrophils to IL-1 stimulated human umbilical cord endothelial cells (HUVEC); assay: Adhesion of human neutrophils to IL-1 stimulated HUVEC; assay type: cell-based; conditions: HUVEC stimulated with 20 ng/ml IL-1β for 4 hr; 4° C., 30 min
Protocol: FIG. 5A. Binding of human neutrophils to IL-1 stimulated human umbilical cord endothelial cells (HUVEC). The neutrophils were first treated with irrelevant control antibody, mouse DREG-200 antibody, or humanized IgG1 DREG-200 antibody, or left untreated, as indicated.
The ability of the mouse and humanized DREG-200 antibodies to block the adhesion of human neutrophils to endothelial cells was determined using a modification of the assay method of Hallmann et al., Biochem. Biophys. Res. Comm. 174:236 (1991). Specifically, human umbilical cord endothelial cells (HUVEC; from Clonetics, San Diego) were grown to confluence in EGM medium (Clonetics) in Lab-Tek 8-chamber slides (Nunc, Naperville, Ill.). The HUVEC cells were stimulated with 20 ng/ml IL-1β (R&D Systems, Minneapolis, Minn.) for 4 hr before use. Neutrophils were isolated by density gradient centrifugation from buffy coats that had been cleared of erythrocytes by dextran sedimentation, and then adjusted to 10^7 per ml. The neutrophils (100 μl) were pre-incubated for 20 minutes on ice with varying concentrations of antibody (in 100 μl RPMI). The HUVEC slides were washed free of IL-1β and placed on a rotary shaker (100 rpm) at 4° C. […] Neutrophil adherence was quantified by counting the neutrophils attached to a defined area of the endothelial cell monolayer with a microscope.

[3] = test system: binding of human neutrophils to stimulated human umbilical vein endothelial cells; conditions: Kishimoto et al., Blood 78:805 (1991); cited from earlier work
human L-selectin = assay: Competitive binding of mouse and humanized DREG-200 antibodies against 125I-labeled mouse DREG-200 on transfected cells; conditions: competition with radio-iodinated mouse DREG-200; 1 hr at 4° C.
Protocol: FIG. 4. Competitive binding of mouse and humanized IgG1 and IgG4 DREG-200 antibodies. The target cells were L2-1 cells, a mouse pre-B cell line, that was transfected with a human L-selectin gene and thus expresses human L-selectin (Berg et al., Biochem. Biophys. Res. Comm. 184:1048 (1992)). 5×10^5 cells were incubated with 3 ng of ^125 I-labeled tracer mouse antibody (2 μCi/μg), together with increasing amounts of mouse or humanized competitor antibody as indicated in 0.2 ml of binding buffer (PBS+2% FBS+0.1% azide) for 1 hr at 4° C. Cells were washed and pelleted, and their bound radioactivity measured. The concentrations of bound and free tracer antibody were calculated.
The affinity of the humanized DREG-200 antibodies for L-selectin were determined by competition with the radio-iodinated mouse DREG-200 antibody (FIG. 4). The binding affinities were calculated according to the methods of Berzofsky (J. A. Berzofsky and I. J. Berkower, in Fundamental Immunology (ed. W. E. Paul), Raven Press (New York), 595 (1984), which is incorporated herein by reference in its entirety for all purposes).

[4] = test system: binding of human PBMC to peripheral lymph node high endothelial venules; assay: Adhesion of human PBMC to peripheral lymph node high endothelial venules; assay type: cell-based; conditions: frozen sections of mouse peripheral lymph nodes; 25 minutes
Protocol: FIG. 10: Inhibition of binding of human PBMC to peripheral lymph node high endothelial venules by humanized DREG-55 (HuDREG-55) and humanized DREG-200 (HuDREG-200). The average number of cells bound per HEV for each antibody treatment is shown. Error bars show the standard errors of the values calculated for three sections.
Human peripheral blood mononuclear cells were isolated and cultured for 2 days at 37° C. in 10% FBS/DMEM. After washing and resuspending in assay medium (5% FBS/DMEM/10 mM HEPES, pH 6.9) at 7×10^6 /ml in the presence of the indicated concentrations of humanized DREG-55, humanized DREG-200 or negative control antibody, cells were applied to frozen sections of mouse peripheral lymph nodes (PLN) while rotating at 50 rpm (as described in Streeter et al., Cell 107, 1853 (1988)). After 25 minutes, non-adherent cells were gently dumped and adherent cells fixed to sections by immersion in 1.5% glutaraldehyde-PBS. Slides were counterstained with thionine and the number of cells bound to each high endothelial venule (HEV) (n=60) in triplicate sections was determined microscopically. The average number of cells bound per HEV for each treatment was calculated.

cat leukocytes = conditions: reported in the literature; cited from earlier work
L-selectin [5] = assay: Flow cytometry binding to L1-2 L-selectin transfectants; conditions: 1 hour incubation; FITC-conjugated goat anti-human Ig
Protocol: FIG. 8: Binding of humanized DREG-55 to L1-2^L-selectin transfectants compared to binding of control antibody as analyzed by flow cytometry. Fluorescence intensity is indicated on the x-axis.
After washing, cells were incubated in a 1:250 dilution of FITC-conjugated goat anti-human Ig, washed, then analyzed for fluorescence by flow cytometry (FACS).

L-selectin [6] = assay: Competitive binding of mouse and humanized DREG-55 to CHO L-selectin cells; conditions: 2 hr at 4° C.
Protocol: FIG. 9: Competitive binding of mouse and humanized DREG-55 antibodies to CHO^L-selectin cells expressing L-selectin. Increasing concentrations of cold competitor antibody were incubated with the cells in the presence of radiolabeled tracer humanized DREG-55 antibody, and the ratio of bound/free radioactivity was determined.
The affinity of the humanized DREG-55 antibody for L-selectin was determined by competition with the radio-iodinated humanized DREG-55 antibody (FIG. 9). Purified humanized DREG-55 antibody was labeled with Na^125 I (Amersham, Arlington Heights, Ill.) using lactoperoxidase to 4 mCi/mg of protein (Marchalonis, Biochem. J. 113, 299 (1969)). CHO^L-selectin cells, which were obtained by transfecting the L-selectin genes into the host CHO cells, were used as a source for L-selectin. […] Cells were then washed and centrifuged, and their radioactivities measured. The ratio of bound and free tracer antibody were calculated. The binding affinities were calculated according to the methods of Berzofsky and Berkower (J. A. Berzofsky and I. J. Berkower, in Fundamental Immunology (ed. W. E. Paul), Raven Press (New York), p. 595 (1984), which is incorporated herein by reference).

Row | Molecule | blocking of binding of human lymphocytes to peripheral lymph node high endothelial venules [1] | blocking of binding of human neutrophils to stimulated human umbilical vein endothelial cells [3] | adhesion of human PBMC to lymph node high endothelial venules [4] | also measured
1 | mouse DREG-200: mouse monoclonal antibody that binds to human L-selectin (Kishimoto et al.); CDR donor [reference compound] | partially or completely block | partially or completely block | – | cross-reactivity with rabbit leukocytes (rabbit leukocytes): cross-reactivity; blocking of binding of neutrophils to HUVEC [2]: effectively blocked
2 | B1 | – | – | block adhesion | affinity relative to the mouse DREG-200 antibody (human L-selectin): ≤ 2 fold; cross-reactivity with cat leukocytes (cat leukocytes): cross-reactivity
3 | B2 | – | – | block adhesion | binding to L1-2 L-selectin transfectants by flow cytometry (L-selectin [5]): reacts
4 | B3 | partially or completely block | partially or completely block | – | affinity for L-selectin compared with humanized DREG-55 (L-selectin [6]): no significant difference
